# Measurements reported in paper PMC8079451, “Phosphopeptide interactions of the Nbs1 N-terminal FHA-BRCT1/2 domains” (Scientific Reports, 2021).
# Square brackets hold non-standard residues; d marks the D form. Primed or numbered codes have the meaning given here. Ends that are not written are not given here. FITC′ = fluorescein isothiocyanate label; pT = C[C@@H](OP(=O)(O)O)[C@H](N)C(=O)O
# T1: hsNbs1(384) K29A (human, UniProt O60934 1-384, K29A)
# T1 construct: source: E. coli BL21(DE3) pLacI, purified as the wild type
# T1 sequence (looked up): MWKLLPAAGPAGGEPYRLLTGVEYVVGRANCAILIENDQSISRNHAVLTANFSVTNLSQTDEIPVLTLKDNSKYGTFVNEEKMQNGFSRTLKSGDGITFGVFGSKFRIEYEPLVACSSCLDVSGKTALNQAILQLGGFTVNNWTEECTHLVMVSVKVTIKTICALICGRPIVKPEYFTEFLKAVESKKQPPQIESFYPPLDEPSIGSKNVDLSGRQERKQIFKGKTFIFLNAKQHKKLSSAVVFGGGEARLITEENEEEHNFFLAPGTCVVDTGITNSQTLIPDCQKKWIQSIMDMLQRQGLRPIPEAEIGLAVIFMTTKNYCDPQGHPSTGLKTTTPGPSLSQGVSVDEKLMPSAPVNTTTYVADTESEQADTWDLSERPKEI
# T2: hsNbs1(384) K73A (human, UniProt O60934 1-384, K73A)
# T2 construct: source: E. coli BL21(DE3) pLacI, purified as the wild type
# T2 sequence (looked up): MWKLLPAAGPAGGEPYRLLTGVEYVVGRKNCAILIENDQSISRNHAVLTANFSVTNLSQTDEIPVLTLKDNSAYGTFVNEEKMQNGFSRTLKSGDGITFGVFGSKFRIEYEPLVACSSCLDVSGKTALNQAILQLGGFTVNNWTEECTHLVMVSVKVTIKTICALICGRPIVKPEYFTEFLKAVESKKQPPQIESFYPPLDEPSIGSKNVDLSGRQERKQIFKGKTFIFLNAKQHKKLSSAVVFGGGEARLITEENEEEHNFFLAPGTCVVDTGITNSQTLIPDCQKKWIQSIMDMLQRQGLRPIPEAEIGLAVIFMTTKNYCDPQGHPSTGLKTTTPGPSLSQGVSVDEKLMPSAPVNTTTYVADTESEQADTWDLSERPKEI
# T3: hsNbs1(384) S118G (human, UniProt O60934 1-384, S118G)
# T3 construct: source: E. coli BL21(DE3) pLacI, purified as the wild type
# T3 sequence (looked up): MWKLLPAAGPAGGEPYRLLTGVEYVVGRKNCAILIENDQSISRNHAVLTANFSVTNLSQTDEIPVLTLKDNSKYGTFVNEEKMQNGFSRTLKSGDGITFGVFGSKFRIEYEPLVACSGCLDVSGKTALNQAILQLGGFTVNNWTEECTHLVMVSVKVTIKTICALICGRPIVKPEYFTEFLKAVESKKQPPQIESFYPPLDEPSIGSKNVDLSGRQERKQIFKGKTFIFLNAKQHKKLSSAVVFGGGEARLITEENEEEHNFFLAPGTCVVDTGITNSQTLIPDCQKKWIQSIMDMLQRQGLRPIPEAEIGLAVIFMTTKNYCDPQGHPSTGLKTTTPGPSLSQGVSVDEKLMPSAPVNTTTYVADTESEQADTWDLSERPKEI
# Experiments:
# Assay in all cases: fluorescence polarisation; 100 nM FITC-labeled phosphopeptide with increasing hsNbs1(384); room temperature, 15 min incubation; 25 mM HEPES pH 7.4, 150 mM NaCl, 1 mM EDTA, 2 mM DTT, 0.05% Tween20, 0.1% BSA; one-site model
# Details in all cases: both partners purified
# hsNbs1(384) K29A = target: T1, hsNbs1(384) K29A
# hsNbs1(384) K73A = target: T2, hsNbs1(384) K73A
# hsNbs1(384) S118G = target: T3, hsNbs1(384) S118G
binder,measurement,setting,value
{FITC′}-GGRYIPPN[pT]PENFWEVGFPEEQ [hsCtIP phosphopeptide R841YIPPNpTPENFWEVGFPEEQ860 with N-terminal FITC-Gly-Gly],Kd,hsNbs1(384) K29A,26 µM
same,Kd,hsNbs1(384) K73A,32.9 µM
same,Kd,hsNbs1(384) S118G,149 µM
